Source: doi:10.1101/426809
Where two headings read alike, the source gives them in different places.

Tests used:
[1] = biological target: HupA_(6xHis), C. difficile HupA (CD3496) with a 6x histidine tag (Clostridium difficile 630Δerm); test: cross-linking
[2] = biological target: HupA_(6xHis), C. difficile HupA (CD3496) with a 6x histidine tag (Clostridium difficile 630Δerm); test: cross-linking; remark: listed apart in the source
[3] = biological target: HupA-HaloTag (HupA fused through a GS linker to HaloTag with a C-terminal 6xHis tag) (Clostridium difficile 630Δerm); test: cross-linking
[4] = biological target: HupA-LgBiT (HupA fused to the large subunit of the bitLuc^opt split luciferase) (Clostridium difficile 630Δerm); test: split reporter
HupAQED6xHis = biological target: T1, HupAQED6xHis (Clostridium difficile 630Δerm, UniProt Q180Z4 1-92, R55Q;R58E;R61D); test: EMSA
T1 sequence: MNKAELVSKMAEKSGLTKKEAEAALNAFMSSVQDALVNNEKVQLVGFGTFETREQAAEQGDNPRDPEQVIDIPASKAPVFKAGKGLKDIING

“HupA_(6xHis), C. difficile HupA (CD3496) with a 6x histidine tag (natural protein)” was tested, and the stoichiometry N [1] was 2 and the stoichiometry N [2] was 2.

Work on “HupA-HaloTag (HupA fused through a GS linker to HaloTag with a C-terminal 6xHis tag) (natural protein)” yielded a stoichiometry N [3] of 2.

“HupA-SmBiT (HupA fused to the small subunit of the bitLuc^opt split luciferase) (natural protein)” gave a luciferase activity (LU/OD) after 1 h of induction [4] of 265000 LU/OD.

B1: oAF65/oAF66, 28.9% G+C (dsDNA)
DNA 1: CATTAAGTATGAGTATTCTATGTATAGATCATTGATGC
DNA 2: GCATCAATGATCTATACATAGAATACTCATACTTAATG
B1: no binding (HupAQED6xHis).

B2: oAF63/oAF64, 52.6% G+C (dsDNA)
DNA 1: CATCAGGCAAGAGTAGTCACTGTGTAGCTCGTGGATGC
DNA 2: GCATCCACGAGCTACACAGTGACTACTCTTGCCTGATG
B2: no binding (HupAQED6xHis).

B3: oAF61/oAF62, 71.1% G+C (dsDNA)
DNA 1: CGCCAGGCCAGGGCTGTCACTGTGCAGCTCGTGGACGC
DNA 2: GCGTCCACGAGCTGCACAGTGACAGCCCTGGCCTGGCG
B3: no binding (HupAQED6xHis).
